T1: Ras1 (two-hybrid fusion) (UniProt P01119 1-309)
T1 sequence: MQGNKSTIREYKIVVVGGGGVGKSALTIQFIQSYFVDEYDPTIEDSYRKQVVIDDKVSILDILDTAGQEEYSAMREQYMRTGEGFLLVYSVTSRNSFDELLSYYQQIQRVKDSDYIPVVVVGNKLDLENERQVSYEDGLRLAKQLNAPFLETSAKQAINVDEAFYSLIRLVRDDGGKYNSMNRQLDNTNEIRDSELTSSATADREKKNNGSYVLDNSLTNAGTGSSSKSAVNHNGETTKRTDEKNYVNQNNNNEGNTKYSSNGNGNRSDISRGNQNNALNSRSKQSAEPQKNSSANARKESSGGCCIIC

T2: Vps11 (two-hybrid fusion) (S. cerevisiae, UniProt P12868 1-1029)
T2 sequence: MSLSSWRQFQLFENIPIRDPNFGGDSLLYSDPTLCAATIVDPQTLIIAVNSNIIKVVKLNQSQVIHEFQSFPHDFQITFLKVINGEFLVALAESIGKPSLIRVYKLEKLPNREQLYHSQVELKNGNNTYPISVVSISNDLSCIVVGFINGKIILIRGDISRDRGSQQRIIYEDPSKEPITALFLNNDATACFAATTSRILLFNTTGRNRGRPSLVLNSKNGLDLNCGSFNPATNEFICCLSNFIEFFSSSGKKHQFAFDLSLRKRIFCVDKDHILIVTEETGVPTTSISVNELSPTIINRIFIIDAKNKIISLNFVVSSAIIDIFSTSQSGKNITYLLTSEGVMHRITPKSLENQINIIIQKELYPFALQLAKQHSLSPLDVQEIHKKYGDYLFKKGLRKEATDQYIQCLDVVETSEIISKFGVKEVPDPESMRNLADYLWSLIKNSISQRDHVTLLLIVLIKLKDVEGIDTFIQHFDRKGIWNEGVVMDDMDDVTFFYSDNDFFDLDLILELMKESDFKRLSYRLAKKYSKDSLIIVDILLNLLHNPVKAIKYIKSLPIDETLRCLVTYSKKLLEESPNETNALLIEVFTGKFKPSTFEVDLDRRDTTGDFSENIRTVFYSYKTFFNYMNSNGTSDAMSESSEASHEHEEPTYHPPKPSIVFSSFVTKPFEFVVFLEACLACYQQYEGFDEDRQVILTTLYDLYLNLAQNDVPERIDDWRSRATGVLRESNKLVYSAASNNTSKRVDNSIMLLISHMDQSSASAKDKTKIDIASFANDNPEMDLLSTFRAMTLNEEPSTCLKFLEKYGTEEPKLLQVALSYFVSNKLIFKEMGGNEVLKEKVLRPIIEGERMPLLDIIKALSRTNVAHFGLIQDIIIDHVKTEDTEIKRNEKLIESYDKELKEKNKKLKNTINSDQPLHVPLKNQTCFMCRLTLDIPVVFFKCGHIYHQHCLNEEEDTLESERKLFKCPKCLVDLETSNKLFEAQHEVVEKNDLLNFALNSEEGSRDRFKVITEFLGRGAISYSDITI

T3: Vps21 (two-hybrid fusion) (S. cerevisiae, UniProt P36017 1-210)
T3 sequence: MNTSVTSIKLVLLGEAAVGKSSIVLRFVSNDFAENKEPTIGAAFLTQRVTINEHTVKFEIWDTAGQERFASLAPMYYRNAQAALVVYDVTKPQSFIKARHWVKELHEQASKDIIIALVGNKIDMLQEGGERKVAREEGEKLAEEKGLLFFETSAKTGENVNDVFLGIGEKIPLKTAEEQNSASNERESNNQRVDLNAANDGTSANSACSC

T4: protein A–Vps39 (S. cerevisiae, UniProt Q07468 1-1049)
T4 sequence: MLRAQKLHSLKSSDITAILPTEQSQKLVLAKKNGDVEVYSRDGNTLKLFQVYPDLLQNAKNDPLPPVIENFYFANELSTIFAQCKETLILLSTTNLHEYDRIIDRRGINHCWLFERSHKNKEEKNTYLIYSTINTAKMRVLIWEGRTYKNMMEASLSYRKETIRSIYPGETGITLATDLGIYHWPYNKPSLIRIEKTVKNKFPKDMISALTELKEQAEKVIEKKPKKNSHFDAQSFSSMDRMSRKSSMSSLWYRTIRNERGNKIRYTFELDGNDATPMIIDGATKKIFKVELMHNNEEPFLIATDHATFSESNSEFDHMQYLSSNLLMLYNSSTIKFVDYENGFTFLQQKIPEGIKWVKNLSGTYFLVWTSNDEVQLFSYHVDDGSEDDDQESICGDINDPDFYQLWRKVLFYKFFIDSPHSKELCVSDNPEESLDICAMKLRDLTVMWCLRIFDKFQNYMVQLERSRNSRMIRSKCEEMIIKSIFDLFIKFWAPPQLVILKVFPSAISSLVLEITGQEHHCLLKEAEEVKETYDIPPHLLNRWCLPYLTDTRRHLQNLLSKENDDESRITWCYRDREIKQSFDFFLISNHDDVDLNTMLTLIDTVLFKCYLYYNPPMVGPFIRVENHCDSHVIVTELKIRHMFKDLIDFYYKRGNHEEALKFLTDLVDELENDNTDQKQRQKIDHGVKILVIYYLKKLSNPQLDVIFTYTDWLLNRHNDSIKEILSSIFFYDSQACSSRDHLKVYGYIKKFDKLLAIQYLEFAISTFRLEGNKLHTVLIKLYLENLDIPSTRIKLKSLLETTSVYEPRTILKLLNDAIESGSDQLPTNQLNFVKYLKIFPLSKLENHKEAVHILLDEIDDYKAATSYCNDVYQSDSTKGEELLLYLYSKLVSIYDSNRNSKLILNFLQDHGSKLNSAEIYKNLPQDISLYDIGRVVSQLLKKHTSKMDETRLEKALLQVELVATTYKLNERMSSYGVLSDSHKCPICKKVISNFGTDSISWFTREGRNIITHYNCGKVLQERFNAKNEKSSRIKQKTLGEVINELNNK


How the values were obtained:
[1] = target: Ypt7 D129A (two-hybrid fusion) (S. cerevisiae, UniProt P32939 1-208, D129A | C206S | C208S); assay: two-hybrid
Ras1 (two-hybrid fusion) = target: T1, Ras1 (two-hybrid fusion); assay: two-hybrid
[2] = target: Ypt7 I41S (two-hybrid fusion) (S. cerevisiae, UniProt P32939 1-208, I41S | C206S | C208S); assay: two-hybrid
[3] = target: Ypt7 T22N (two-hybrid fusion) (S. cerevisiae, UniProt P32939 1-208, T22N | C206S | C208S); assay: two-hybrid
[4] = target: Ypt7 T40A (two-hybrid fusion) (S. cerevisiae, UniProt P32939 1-208, T40A | C206S | C208S); assay: two-hybrid
[5] = target: T2, Vps11 (two-hybrid fusion); assay: two-hybrid
[6] = target: Ypt7 Q68L (two-hybrid fusion) (S. cerevisiae, UniProt P32939 1-208, Q68L | C206S | C208S); assay: two-hybrid
[7] = target: Ypt7 (two-hybrid fusion, ypt7 C206S, C208S) (S. cerevisiae, UniProt P32939 1-208, C206S | C208S); assay: two-hybrid
[8] = target: T3, Vps21 (two-hybrid fusion); assay: two-hybrid
protein A–Vps39 = target: T4, protein A–Vps39; assay: pull-down

Row | β-galactosidase activity [1] | β-galactosidase activity (Ras1 (two-hybrid fusion)) | β-galactosidase activity [2] | β-galactosidase activity [3] | β-galactosidase activity [4] | β-galactosidase activity [5] | β-galactosidase activity [6] | β-galactosidase activity [7] | β-galactosidase activity [8] | binding result (protein A–Vps39) | Binder
1 | 31 U | < 0.25 U | ~13 U | ~5 U | ~13 U | 2.8 U | ~3 U | ~4 U | < 0.25 U | – | Vps39 (two-hybrid fusion) (natural protein) MLRAQKLHSLKSSDITAILPTEQSQKLVLAKKNGDVEVYSRDGNTLKLFQVYPDLLQNAKNDPLPPVIENFYFANELSTIFAQCKETLILLSTTNLHEYDRIIDRRGINHCWLFERSHKNKEEKNTYLIYSTINTAKMRVLIWEGRTYKNMMEASLSYRKETIRSIYPGETGITLATDLGIYHWPYNKPSLIRIEKTVKNKFPKDMISALTELKEQAEKVIEKKPKKNSHFDAQSFSSMDRMSRKSSMSSLWYRTIRNERGNKIRYTFELDGNDATPMIIDGATKKIFKVELMHNNEEPFLIATDHATFSESNSEFDHMQYLSSNLLMLYNSSTIKFVDYENGFTFLQQKIPEGIKWVKNLSGTYFLVWTSNDEVQLFSYHVDDGSEDDDQESICGDINDPDFYQLWRKVLFYKFFIDSPHSKELCVSDNPEESLDICAMKLRDLTVMWCLRIFDKFQNYMVQLERSRNSRMIRSKCEEMIIKSIFDLFIKFWAPPQLVILKVFPSAISSLVLEITGQEHHCLLKEAEEVKETYDIPPHLLNRWCLPYLTDTRRHLQNLLSKENDDESRITWCYRDREIKQSFDFFLISNHDDVDLNTMLTLIDTVLFKCYLYYNPPMVGPFIRVENHCDSHVIVTELKIRHMFKDLIDFYYKRGNHEEALKFLTDLVDELENDNTDQKQRQKIDHGVKILVIYYLKKLSNPQLDVIFTYTDWLLNRHNDSIKEILSSIFFYDSQACSSRDHLKVYGYIKKFDKLLAIQYLEFAISTFRLEGNKLHTVLIKLYLENLDIPSTRIKLKSLLETTSVYEPRTILKLLNDAIESGSDQLPTNQLNFVKYLKIFPLSKLENHKEAVHILLDEIDDYKAATSYCNDVYQSDSTKGEELLLYLYSKLVSIYDSNRNSKLILNFLQDHGSKLNSAEIYKNLPQDISLYDIGRVVSQLLKKHTSKMDETRLEKALLQVELVATTYKLNERMSSYGVLSDSHKCPICKKVISNFGTDSISWFTREGRNIITHYNCGKVLQERFNAKNEKSSRIKQKTLGEVINELNNK
2 | – | – | – | – | – | – | – | – | – | binds | GST-Ypt7 (natural protein) MSSRKKNILKVIILGDSGVGKTSLMHRYVNDKYSQQYKATIGADFLTKEVTVDGDKVATMQVWDTAGQERFQSLGVAFYRGADCCVLVYDVTNASSFENIKSWRDEFLVHANVNSPETFPFVILGNKIDAEESKKIVSEKSAQELAKSLGDIPLFLTSAKNAINVDTAFEEIARSALQQNQADTEAFEDDYNDAINIRLDGENNSCSC

From PMC2185595 (The Journal of Cell Biology, 2000)
